What was measured:
[1] = tested on: renal cortical tubular epithelial cells; assay: Kidney vacuolization histopathology in C57BL6 female mice; type: in vivo, mouse
Experimental: With some drugs, such as some pegylated proteins, undesirable vacuoles can form in cytoplasm of epithelial cells lining the proximal convoluted tubules, which is an undesirable toxicity measure. […] C57BL6 female mice (n=2 cages, 3 mice/cage) were weighed daily 3 hours prior to lights out. Immediately after weighing, on days 0-6 mice were injected subcutaneously with test compound. Mice were sacrificed on day 7 and kidneys submitted for histopathology. […] A positive control compound known to cause vacuole formation was scored as 3.

NIH/Swiss mice = assay: OGTT DOA (oral glucose tolerance test duration of action); type: in vivo, mouse
Experimental: For example, duration can be performed using an oral glucose tolerance test (OGTT) in which the drug is administered to the subject at a desired time point before the glucose is administered orally(to measure drug duration of action; OGTT DOA) and glucose blood levels are measured (e.g. readily done in mice).
Drug was administered to 4-hr fasted NIH/Swiss mice. […] Blood glucose was measured with a OneTouch® Ultra® (LifeScan, Inc., a Johnson & Johnson Company, Milpitas, Calif.). *p<0.05 vs. vehicle control; ANOVA, Dunnett's test. Glucose lowering as percent lowering compared to vehicle is given (negative value indicates lowering of glucose) at 30 minutes post gavage.

GLP-1 receptor = target: T1, GLP-1 receptor (Rattus norvegicus, UniProt P32301); assay: GLP-1 receptor functional assay: cAMP induction (HTRF) in rat thyroid carcinoma 6-23 (clone 6) cells; type: cell-based
T1 construct: functional activity was determined using cells that endogenously express GLP-1R; endogenous in cells; host or cells: rat thyroid carcinoma 6-23 (clone 6) cells
T1 sequence (P32301 22-463): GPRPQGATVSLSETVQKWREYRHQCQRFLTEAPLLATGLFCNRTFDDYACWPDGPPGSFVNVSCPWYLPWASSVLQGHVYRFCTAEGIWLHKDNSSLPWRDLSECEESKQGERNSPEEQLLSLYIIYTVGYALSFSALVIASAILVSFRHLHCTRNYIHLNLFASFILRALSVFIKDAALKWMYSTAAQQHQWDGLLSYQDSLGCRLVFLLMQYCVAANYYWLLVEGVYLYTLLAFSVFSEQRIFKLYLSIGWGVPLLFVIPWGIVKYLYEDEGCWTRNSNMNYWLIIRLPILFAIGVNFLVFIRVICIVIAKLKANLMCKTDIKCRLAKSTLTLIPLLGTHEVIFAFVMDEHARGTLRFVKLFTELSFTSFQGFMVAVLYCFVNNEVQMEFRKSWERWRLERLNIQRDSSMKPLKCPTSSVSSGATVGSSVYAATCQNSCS

CC[C@H](C)[C@H](NC(=O)[C@H](C)NC(=O)[C@H](CC(=O)O)NC(=O)[C@H](CCCCN)NC(=O)[C@H](CC(C)C)NC(=O)[C@H](C)NC(=O)[C@H](CCC(=O)O)NC(=O)[C@@H](NC(=O)CNC(=O)[C@H](CCC(=O)O)NC(=O)[C@@H](NC(=O)[C@@H](NC(=O)[C@H](CCCCN)NC(=O)[C@H](C)NC(=O)[C@H](CCCCN)NC(=O)[C@H](CC(=O)O)NC(=O)[C@@H](NC(=O)[C@H](CC(C)C)NC(=O)[C@H](CCCNC(=N)N)NC(=O)[C@H](CCCCN)NC(=O)[C@H](Cc1ccc(O)cc1)NC(=O)[C@H](Cc1ccccc1)NC(=O)[C@H](CC(=O)O)NC(=O)[C@H](CO)NC(=O)[C@@H](NC(=O)CNC(=O)[C@H](Cc1ccc(O)cc1)NC(=O)[C@H](CO)NC(=O)[C@H](CC(=O)O)NC(=O)[C@H](CC(C)C)NC(=O)[C@H](CCC(=O)O)NC(=O)[C@H](C)NC(=O)[C@H](CC(N)=O)NC(=O)[C@H](C)NC(=O)[C@H](C)NC(=O)[C@H](CCC(=O)O)NC(=O)[C@H](CCCCN)NC(=O)[C@H](C)NC(=O)[C@H](CCC(=O)O)NC(=O)[C@H](C)NC(=O)[C@H](CC(C)C)NC(=O)[C@H](CO)NC(=O)CN)C(C)C)[C@@H](C)CC)[C@@H](C)O)C(C)C)C(C)C)C(=O)N[C@@H](CC(C)C)C(=O)N[C@@H](C)C(=O)N[C@@H](C)C(=O)N[C@@H](CC(C)C)C(=O)N1CCC[C@H]1C(=O)O [PEP07986]
severity score for cytoplasmic vacuolation of renal cortical tubular epithelial cells ([1]; mouse, in vivo, sc): 0

HGEGTFTSDLSKQLEEEAVRLFIEWLKNGGPSSGAPPKSTGGGGSASGSLAEAKEAANAELDSYGVSDFYKRLIDKAKTVEGVEALKDAILAALP [Cmpd 6]
Percent glucose lowering compared to vehicle (NIH/Swiss mice; 25 nmol/Kg, OGTT at 24 hours post drug administration, 30 minutes post gavage, 4-hr fasted NIH/Swiss mice): −22%

HGEGTFTSDLSKQLEEEAVRLFIEWLKQGGPSKEIISTGGGGSASGSLAEAKEAANAELDSYGVSDFYKRLIDKAKTVEGVEALKDAILAALP [Cmpd 5]
severity score for cytoplasmic vacuolation of renal cortical tubular epithelial cells ([1]; subcutaneous on days 0-6, sacrificed on day 7, C57BL6 female mice): 0

B1: HGEGTFTSDLSKQLEEEAVRLFIEWLKNTGGGGSASGSLAEAKEAANAELDSYGVS DFYKRLIDKAKTVEGVEALKDAILAALP (protein)
chain: HGEGTFTSDLSKQLEEEAVRLFIEWLKNTGGGGSASGSLAEAKEAANAELDSYGVSDFYKRLIDKAKTVEGVEALKDAILAALP
in vitro activity against the GLP-1 receptor (GLP-1 receptor): active in vitro against the GLP-1 receptor | activity in OGTT DOA when dosed at t-24 hours (NIH/Swiss mice; NIH/Swiss mice, drug given 24 hours before OGTT): did not display 24 duration

Reference: US20180344813A1, “ENGINEERED POLYPEPTIDES HAVING ENHANCED DURATION OF ACTION WITH REDUCED IMMUNOGENICITY” (priority 2016, published 2018)
